Positions count from the first letter of the chain named.
T1: Fas/TNFSF6 (R&D Systems, cat. no. 126-FL/CF) (UniProt P48023 134-281)
T1 sequence (looked up): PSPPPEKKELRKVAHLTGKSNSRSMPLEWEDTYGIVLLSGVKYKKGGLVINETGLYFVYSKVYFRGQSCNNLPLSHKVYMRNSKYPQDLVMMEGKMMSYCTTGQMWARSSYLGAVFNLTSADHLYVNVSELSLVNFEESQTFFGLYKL

T2: human TL1A (Fitzgerald, Prod. #30R-AT070) (human, UniProt O95150 72-251, limits assumed, biotinylated with EZ-Link Sulfo-NHS-LC-Biotin where used as soluble antigen)
T2 construct: also called TNFSF15; biotinylated human TL1A
T2 sequence (looked up): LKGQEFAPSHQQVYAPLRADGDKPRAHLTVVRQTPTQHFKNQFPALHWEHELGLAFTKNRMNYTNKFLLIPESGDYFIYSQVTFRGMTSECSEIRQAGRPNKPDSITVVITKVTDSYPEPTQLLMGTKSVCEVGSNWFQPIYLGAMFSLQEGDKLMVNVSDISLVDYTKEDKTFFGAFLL

B1: Clone 14 Fab (Fab, V domains shown)
VH: QVQLVQSGAEVKKPGASVKVSCKASGFDIQDTYMHWVRQAPGQGLEWMGRIDPASGHIKYDPKFQKRVTMTRDTSTSTVYMELSSLRSEDTAVYYCARSGGLPDMWGQGTTVTVSS
VL: EIVLTQSPGTLSLSPGERATLSCRASSSVSYMYWYQQKPGQAPRLLIYATSNLASGIPDRFSGSGSGTDFTLTISRLEPEDFAVYYCQQWQGNPRTFGGGTKLEIK
notes: Fab; also called variant 14
B2: Clone 52 Fab (Fab, V domains shown)
VH: B1 VH with D52E, D61S, K66G, M105W
VL: B1 VL with R24G, Q91E
notes: Fab
B3: Clone 53 Fab (Fab, V domains shown)
VH: B1 VH with D52E, I58L, K66E, M105K
VL: B1 VL with Q91E
notes: Fab; also called variant 53
B4: Clone 2 Fab (Fab, V domains shown)
VH: B1 VH with D52E, D61S, K66G, M105W
VL: B1 VL with Q91E
notes: Fab
B5: Clone 47 Fab (Fab, V domains shown)
VH: B1 VH with D52E, I58V, K66T, M105W
VL: B1 VL with Q91E
notes: Fab; also called variant 47
B6: Clone 34 Fab (Fab, V domains shown)
VH: B1 VH with D52E, K66G, M105W
VL: B1 VL with Q91E
notes: Fab; also called variant 34
B7: Clone 23 Fab (Fab, V domains shown)
VH: B1 VH with I58L, K66N, M105K
VL: B1 VL with Q91E
notes: Fab; also called variant 23
B8: Clone X Fab (Fab, V domains shown)
VH: B1 VH with I58T, K66G, V68A, M70I, R72T, T76A, V79A, M81L, E82Q, M105F
VL: B1 VL with Q91S
notes: Fab
B9: Clone 17L Fab (Fab, V domains shown)
VH: B1 VH with I58L, K66V
VL: B1 VL
notes: Fab
B10: Clone 46 Fab (Fab, V domains shown)
VH: B1 VH with D52E, I58V, D61S, K66V, M105W
VL: B1 VL with Q91E
notes: Fab
B11: 18-7 (CDR-grafted LC) Fab (Fab, V domains shown)
VH: B1 VH with V20L, I58T, K66V, A97S, M105V
VL: B1 VL with Q91S
notes: Fab; also called clone 18-7
B12: 21-3 (CDR-grafted HC) Fab (Fab, V domains shown)
VH: B1 VH with I58T, K66V, M105V
VL: B1 VL with I57V, F70Y, Q91S
notes: Fab; also called clone 21-3
B13: clone 19 Fab (12835 framework variant) (Fab, V domains shown)
VH: B1 VH with V20L, I58T, K66V, R72T, A97S, M105V
VL: B1 VL with F70Y, Q91S
notes: Fab
B14: clone 22 Fab (12835 framework variant) (Fab, V domains shown)
VH: B1 VH with V20L, I58T, K66V, R72T, A97S, M105V
VL: B1 VL with A19V, L21M, L45P, L46W, I57V, Q91S
notes: Fab
B15: clone 1-4 Fab (12835 framework variant) (Fab, V domains shown)
VH: B1 VH with V20L, I58T, K66V, R72T, A97S, M105V
VL: B1 VL with A19V, L21M, L46W, F70Y, Q91S
notes: Fab
B16: clone 5-2 Fab (12835 framework variant) (Fab, V domains shown)
VH: B1 VH with V20L, I58T, K66V, A97S, M105V
VL: B1 VL with A19V, L21M, L45P, L46W, I57V, F70Y, Q91S
notes: Fab
B17: clone 26 Fab (12835 framework variant) (Fab, V domains shown)
VH: B1 VH with I58T, K66V, R72T, A97S, M105V
VL: B1 VL with L45P, L46W, I57V, F70Y, Q91S
notes: Fab
B18: 12835 (humanized 5C3D11) Fab (Fab, V domains shown)
VH: B1 VH with V20L, I58T, K66V, R72T, A97S, M105V
VL: B1 VL with A19V, L21M, L45P, L46W, I57V, F70Y, Q91S
notes: Fab
B19: clone 19-5 Fab (12835 framework variant) (Fab, V domains shown)
VH: B1 VH with I58T, K66V, A97S, M105V
VL: B1 VL with I57V, F70Y, Q91S
notes: Fab
B20: clone 10-1 Fab (12835 framework variant) (Fab, V domains shown)
VH: B1 VH with V20L, I58T, K66V, A97S, M105V
VL: B1 VL with I57V, F70Y, Q91S
notes: Fab
B21: clone 21 Fab (12835 framework variant) (Fab, V domains shown)
VH: B1 VH with V20L, I58T, K66V, R72T, A97S, M105V
VL: B1 VL with L46W, F70Y, Q91S
notes: Fab
B22: clone 1-3 Fab (12835 framework variant) (Fab, V domains shown)
VH: B1 VH with V20L, I58T, K66V, R72T, A97S, M105V
VL: B1 VL with A19V, L21M, L45P, L46W, F70Y, Q91S
notes: Fab
B23: clone 17-2 Fab (12835 framework variant) (Fab, V domains shown)
VH: B1 VH with V20L, I58T, K66V, A97S, M105V
VL: B1 VL with I57V, Q91S
notes: Fab
B24: clone 16-2 Fab (12835 framework variant) (Fab, V domains shown)
VH: B1 VH with V20L, I58T, K66V, A97S, M105V
VL: B1 VL with F70Y, Q91S
notes: Fab
B25: clone 9-1 Fab (12835 framework variant) (Fab, V domains shown)
VH: B1 VH with V20L, I58T, K66V, A97S, M105V
VL: B1 VL with L45P, L46W, I57V, Q91S
notes: Fab
B26: clone 2-3 Fab (12835 framework variant) (Fab, V domains shown)
VH: B1 VH with V20L, I58T, K66V, R72T, A97S, M105V
VL: B1 VL with L45P, L46W, F70Y, Q91S
notes: Fab
B27: clone 7-4 Fab (12835 framework variant) (Fab, V domains shown)
VH: B1 VH with V20L, I58T, K66V, R72T, A97S, M105V
VL: B1 VL with L46W, I57V, F70Y, Q91S
notes: Fab
B28: clone 20-7 Fab (12835 framework variant) (Fab, V domains shown)
VH: B1 VH with V20L, I58T, K66V, M105V
VL: B1 VL with I57V, F70Y, Q91S
notes: Fab
B29: clone 5-1 Fab (12835 framework variant) (Fab, V domains shown)
VH: B1 VH with V20L, I58T, K66V, A97S, M105V
VL: B1 VL with L45P, L46W, I57V, F70Y, Q91S
notes: Fab
B30: clone 5-4 Fab (12835 framework variant) (Fab, V domains shown)
VH: B1 VH with V20L, I58T, K66V, R72T, A97S, M105V
VL: B1 VL with L45P, L46W, I57V, F70Y, Q91S
notes: Fab
B31: clone 13-2 Fab (12835 framework variant) (Fab, V domains shown)
VH: B1 VH with V20L, I58T, K66V, M105V
VL: B1 VL with L45P, L46W, I57V, F70Y, Q91S
notes: Fab
B32: clone 3-4 Fab (12835 framework variant) (Fab, V domains shown)
VH: B1 VH with V20L, I58T, K66V, R72T, A97S, M105V
VL: B1 VL with L45P, L46W, I57V, Q91S
notes: Fab
B33: clone 27 Fab (12835 framework variant) (Fab, V domains shown)
VH: B1 VH with I58T, K66V, R72T, A97S, M105V
VL: B1 VL with L45P, I57V, F70Y, Q91S
notes: Fab

target: TRAIL/TNFSF10 (R&D Systems, cat. no. 375-TL/CF) (UniProt P50591 114-281); assay: ELISA, antigen coated at 1 µg/ml, Fab titrated
Experimental: (§1) Next, all the Fab variants were characterized for their selectivity for human TL1A relative to other TNFSF members TRAIL, LIGHT and Fas. […] The plate was washed 3 times with PBS-T and blocked with 100 μl of 1% BSA/PBS. The block was discarded and the Fab variants or control antibodies (Fas/TNFSF6, R&D Systems, cat. no. AF126; TRAIL/TNFSF10, R&D Systems, cat. no. AF375; LIGHT/TNFSF14, R&D Systems, cat. no. AF664) were titrated in 50 μl 1% BSA/PBS and incubated for 1 h at 25° C. The plate was washed 3 times with PBS-T and secondary HRP-conjugated antibody (diluted 5,000-fold in 1% BSA/PBS) was added for 1 h at 25° C. The plate was washed 3 times with PBS-T and developed.

TRAIL/TNFSF10 (R&D Systems, cat. no. 375-TL/CF), sequence (P50591 114-281 limits assumed): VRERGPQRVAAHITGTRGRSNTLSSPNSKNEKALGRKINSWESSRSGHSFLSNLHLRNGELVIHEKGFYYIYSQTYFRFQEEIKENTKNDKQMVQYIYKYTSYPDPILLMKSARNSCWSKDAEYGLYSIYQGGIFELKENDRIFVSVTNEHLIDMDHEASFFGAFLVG

binding result | Binder
no binding | B1
no binding | B2
no binding | B3
no binding | B4
no binding | B5
no binding | B6
no binding | B7
no binding | B8
no binding | B9
no binding | B10

target: LIGHT/TNFSF14 (R&D Systems, cat. no. 664-LI/CF) (UniProt O43557 74-240); assay: ELISA, antigen coated at 1 µg/ml, Fab titrated
Experimental: as §1

LIGHT/TNFSF14 (R&D Systems, cat. no. 664-LI/CF), sequence (O43557 74-240 limits assumed): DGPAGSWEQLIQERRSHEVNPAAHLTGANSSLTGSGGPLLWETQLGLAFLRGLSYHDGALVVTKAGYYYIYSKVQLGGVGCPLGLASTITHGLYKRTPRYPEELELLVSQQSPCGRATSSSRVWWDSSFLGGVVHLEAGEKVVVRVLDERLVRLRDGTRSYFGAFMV

binding result | Binder
no binding | B1
no binding | B2
no binding | B3
no binding | B4
no binding | B5
no binding | B6
no binding | B7
no binding | B8
no binding | B9
no binding | B10

target: T1, Fas/TNFSF6 (R&D Systems, cat. no. …); assay: ELISA, antigen coated at 1 µg/ml, Fab titrated
Experimental: as §1

binding result | Binder
no binding | B1
no binding | B2
no binding | B3
no binding | B4
no binding | B5
no binding | B6
no binding | B7
no binding | B8
no binding | B9
no binding | B10

target: T2, human TL1A (Fitzgerald, Prod. …); assay: capture lift screen and Fab ELISA on coated TL1A

binding result | Binder
binds | B11
binds | B12
binds | B13
binds | B14
binds | B15
binds | B16
binds | B17
binds | B18
binds | B19
binds | B20
binds | B21
binds | B22
binds | B23
binds | B24
binds | B25
binds | B26
binds | B27
binds | B28
binds | B29
binds | B30
binds | B31
binds | B32
binds | B33

— patent US20240368263A1 (PROMETHEUS BIOSCIENCES, published 2024)
